In the supplement of paper PMC10126150:
± gives the standard deviation of the averaged measurements.

Each sequence was assayed on ATP (assay: switch fluorescence ratio, 500 uM ATP over buffer (Cy3 cluster intensity, sum of 5 cycles each) (fold (ratio)); higher = stronger signal-on switching upon ATP binding; sequences stand for … in TCGTCGGCAGCGTCAGATGTGTATAAGAGACAGTTTTTTTTTTTTTTTTTTTTTTTTT…TC). Conditions: aptamer strand: ATP DNA aptamer (quencher-CACCTGGGGGAGTATTGCGGAGGAAGG + anchor), 100 nM annealed; ATP concentration: 500 uM.
Summary of the method: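 Exposure to 500 uM ATP lasted 15 min at 22 °C before imaging, and a selection-buffer image was taken beforehand, for Cy3-labelled switching-strand clusters on a modified Illumina MiSeq flow-cell annealed to 100 nM quencher-labelled ATP aptamer. Five buffer/ATP cycles were run with NaOH stripping and re-annealing between them. The fluorescence ratio per cluster is summed target-cycle over summed buffer-cycle Cy3 intensity, averaged per switch-domain sequence. Clusters outside 100-1000 RFU were excluded.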
ATCGGAATGG was tested, and the switch fluorescence ratio was 1.05 ± 0.024. Work on CAGGGACATT yielded a switch fluorescence ratio of 1.08 ± 0.067. Work on TGGGTGCCGT yielded a switch fluorescence ratio of 1.04 ± 0.034. TAGGGGGCTG was tested, and the switch fluorescence ratio was 1.01 ± 0.02. In the case of CGGCCAGGGG, the switch fluorescence ratio is reported as 1.5 ± 0.09. ATGGAGTCGG gave a switch fluorescence ratio of 0.986 ± 0.021. Work on GCGGGAGGGG yielded a switch fluorescence ratio of 0.99 ± 0.054. For CAGGTGGAGA, the switch fluorescence ratio was 1.0094 ± 0.00078. With TTATTTTTAT the switch fluorescence ratio was 0.998 ± 0.018. Sequence CGCTACGATG has a switch fluorescence ratio of 1.082 ± 0.0078. With GCAGGTTGAC the switch fluorescence ratio was 1.034 ± 0.003. GCTTGGGCAG showed a switch fluorescence ratio of 1.02 ± 0.045. In the case of TAAAAGGTTT, the switch fluorescence ratio is reported as 1 ± 0.032. For TAAGTCATGG, the switch fluorescence ratio was 0.9922 ± 0.0078. GTTTGGAGTG was tested, and the switch fluorescence ratio was 1 ± 0.041. Work on TATGTGAGTT yielded a switch fluorescence ratio of 1.001 ± 0.0099. Sequence TGTGTTGGGT has a switch fluorescence ratio of 0.98 ± 0.015. Work on ACTTATAGGA yielded a switch fluorescence ratio of 1.03 ± 0.012. Work on TGAGAACGCA yielded a switch fluorescence ratio of 1.2 ± 0.054. With TGGGCCCGGC the switch fluorescence ratio was 1.02 ± 0.053. TCGGGTAGGG was tested, and the switch fluorescence ratio was 0.991 ± 0.025. ATAGGTTTGG was tested, and the switch fluorescence ratio was 0.97 ± 0.014. TGGTGGCCTT was tested, and the switch fluorescence ratio was 1.03 ± 0.032. Sequence TCATAGTGTT has a switch fluorescence ratio of 1.01 ± 0.04. ATAGGTTTTA gave a switch fluorescence ratio of 0.976 ± 0.017. With TCCTGTTTTT the switch fluorescence ratio was 1.01 ± 0.056. AGTTAACCGG showed a switch fluorescence ratio of 1.006 ± 0.0027. Sequence TTCGACGGTT has a switch fluorescence ratio of 1.03 ± 0.033. With TGTCAGAGGG the switch fluorescence ratio was 1.01 ± 0.016. In the case of TAGAGTGGGC, the switch fluorescence ratio is reported as 0.991 ± 0.013. In the case of CGTTAGAATA, the switch fluorescence ratio is reported as 1.017 ± 0.0078. With GTGACACACC the switch fluorescence ratio was 1.15 ± 0.039. With TTTTAAGATT the switch fluorescence ratio was 0.999 ± 0.047. In the case of TCCAGGGCG, the switch fluorescence ratio is reported as 1.03 ± 0.029. With TTATCAGTGG the switch fluorescence ratio was 0.9707 ± 0.002. TGCAGGCAAG gave a switch fluorescence ratio of 1.01 ± 0.024. TTTTTCAATA showed a switch fluorescence ratio of 1.01 ± 0.023. CGGGGAAAAA showed a switch fluorescence ratio of 1.06 ± 0.094. GCTATTGATC showed a switch fluorescence ratio of 1.02 ± 0.021. Sequence GGTGTTGTTC has a switch fluorescence ratio of 1.01 ± 0.014. With TATTCGGGGG the switch fluorescence ratio was 1.04 ± 0.078. Work on CAAATTAGGG yielded a switch fluorescence ratio of 0.971 ± 0.036. In the case of GTTTAAGGTT, the switch fluorescence ratio is reported as 1.08 ± 0.2. With CCGGACCAGA the switch fluorescence ratio was 1.15 ± 0.057. AAATCCTTGT was tested, and the switch fluorescence ratio was 0.992 ± 0.039. In the case of GCCGAAAGGA, the switch fluorescence ratio is reported as 1.04 ± 0.039. Work on GGGGTATTTT yielded a switch fluorescence ratio of 0.997 ± 0.023. Work on ATCATTATTG yielded a switch fluorescence ratio of 1 ± 0.013. In the case of TTGGGTATGG, the switch fluorescence ratio is reported as 0.997 ± 0.018. CGTGTCATTA was tested, and the switch fluorescence ratio was 1.01 ± 0.031. CAGGGGATTA showed a switch fluorescence ratio of 1 ± 0.045. In the case of GGTTAACGTC, the switch fluorescence ratio is reported as 1.03 ± 0.15. Sequence TTTCTCGG has a switch fluorescence ratio of 1.07 ± 0.093. Sequence ATTCAGATCT has a switch fluorescence ratio of 1 ± 0.034. In the case of GGATTTGGTT, the switch fluorescence ratio is reported as 1.04 ± 0.036. With GAAGGTGGGG the switch fluorescence ratio was 0.992 ± 0.037. For GTATTCTGTT, the switch fluorescence ratio was 0.997 ± 0.013. GTGTTCTTAT gave a switch fluorescence ratio of 1.01 ± 0.011. ATTTGGTGCG showed a switch fluorescence ratio of 1.01 ± 0.036. Work on CATACACAGG yielded a switch fluorescence ratio of 1.26 ± 0.078. Work on GTGCTTGGAA yielded a switch fluorescence ratio of 0.994 ± 0.033. Sequence ATATATTTGT has a switch fluorescence ratio of 1.008 ± 0.0041. Work on GAGCAGCTCG yielded a switch fluorescence ratio of 0.9995 ± 0.0059. AGATTTAAAG gave a switch fluorescence ratio of 0.98 ± 0.034. In the case of TTGCTGGGCG, the switch fluorescence ratio is reported as 0.995 ± 0.026. TTTGGCCGGT gave a switch fluorescence ratio of 1.04 ± 0.056. For TTAGTACCCA, the switch fluorescence ratio was 1.03 ± 0.0032. Sequence ATTCGAAGGT has a switch fluorescence ratio of 1.004 ± 0.0044. TATCGGGACT showed a switch fluorescence ratio of 0.9751 ± 0.006. ATCAGGGCGT showed a switch fluorescence ratio of 0.987 ± 0.032. In the case of AAGGGGCTTC, the switch fluorescence ratio is reported as 0.985 ± 0.033. TGAAGCTTGG was tested, and the switch fluorescence ratio was 1.026 ± 0.0073. Work on CAGGGCATGG yielded a switch fluorescence ratio of 1.01 ± 0.0073. In the case of TATTAAATTT, the switch fluorescence ratio is reported as 1.031 ± 0.0051. TACGGGGTCA showed a switch fluorescence ratio of 0.971 ± 0.03. AGGATAGGGG was tested, and the switch fluorescence ratio was 0.991 ± 0.026. TTAGTTGTAA was tested, and the switch fluorescence ratio was 1.012 ± 0.0049. For TATAGGTTTT, the switch fluorescence ratio was 1 ± 0.081. For TACGGAACGG, the switch fluorescence ratio was 1.07 ± 0.029. GAGTAATTGT was tested, and the switch fluorescence ratio was 0.9975 ± 0.0042. Work on TTTTGAAGAT yielded a switch fluorescence ratio of 1.009 ± 0.01. TTAGACGCGG was tested, and the switch fluorescence ratio was 0.98 ± 0.036. Work on TATTTCAGTC yielded a switch fluorescence ratio of 1.01 ± 0.02. CGTCTTGTGG was tested, and the switch fluorescence ratio was 1 ± 0.022. TGAGCGGGAG gave a switch fluorescence ratio of 1.0564 ± 0.00029. Sequence TTGTAGGAAC has a switch fluorescence ratio of 0.9978 ± 0.0037. For TATTTTAATT, the switch fluorescence ratio was 0.991 ± 0.017. AGACGGGATT showed a switch fluorescence ratio of 1.03 ± 0.021. Work on TATGGTCTGT yielded a switch fluorescence ratio of 0.981 ± 0.042. CCGTAACGGG was tested, and the switch fluorescence ratio was 1.09 ± 0.085. Work on CCATACAGTT yielded a switch fluorescence ratio of 1.01 ± 0.021. In the case of ACAATTGACT, the switch fluorescence ratio is reported as 1.099 ± 0.0039. GAACGTTATT gave a switch fluorescence ratio of 1.2 ± 0.23. Work on CGAGACAGGG yielded a switch fluorescence ratio of 1 ± 0.036. TTTACTGGCA showed a switch fluorescence ratio of 1.05 ± 0.076. Sequence TTTCTAAGAA has a switch fluorescence ratio of 1.01 ± 0.013. With ACGTTTTGAG the switch fluorescence ratio was 1.0122 ± 0.00047. In the case of CCGAAATGGG, the switch fluorescence ratio is reported as 1.5 ± 0.07. With CTACAATGTA the switch fluorescence ratio was 1.01 ± 0.021. Work on CGTGAGGGAG yielded a switch fluorescence ratio of 0.994 ± 0.029. Work on GGTACTCGGG yielded a switch fluorescence ratio of 0.961 ± 0.013. In the case of TTAGTAGGTG, the switch fluorescence ratio is reported as 0.98 ± 0.024. Sequence TTGTAGCCGT has a switch fluorescence ratio of 0.983 ± 0.029. CTTTATTGGA showed a switch fluorescence ratio of 0.971 ± 0.013. Sequence ATTAAAAAAT has a switch fluorescence ratio of 0.98 ± 0.089. For ACCGATACCC, the switch fluorescence ratio was 1.31 ± 0.022. For GGTTTTAAAT, the switch fluorescence ratio was 0.98195 ± 0.00028. With ACGATTAGTT the switch fluorescence ratio was 0.971 ± 0.032. Sequence CGGGTTAAGT has a switch fluorescence ratio of 1.03 ± 0.11. For ATTGTCGGCT, the switch fluorescence ratio was 1.05 ± 0.18. Work on TTTGACGTTG yielded a switch fluorescence ratio of 1.02 ± 0.047. With GACTTAGTGG the switch fluorescence ratio was 1.03 ± 0.077. For TCTGAACGGT, the switch fluorescence ratio was 0.983 ± 0.023. Sequence GTTGGGGATG has a switch fluorescence ratio of 1.02 ± 0.026. With AAGATGGGGT the switch fluorescence ratio was 0.991 ± 0.017. Sequence GCTGGGGTAT has a switch fluorescence ratio of 0.984 ± 0.015. CGGTTAGCGG showed a switch fluorescence ratio of 0.983 ± 0.044. AACCAGCACC showed a switch fluorescence ratio of 1.0991 ± 0.00048. In the case of GCCTGGTCAG, the switch fluorescence ratio is reported as 0.979 ± 0.013. Sequence GGGTTAAGGA has a switch fluorescence ratio of 0.989 ± 0.036. With TTTATGGCTG the switch fluorescence ratio was 0.987 ± 0.076. TAGAAACTTT gave a switch fluorescence ratio of 1.1 ± 0.14. GGGGACTTTT was tested, and the switch fluorescence ratio was 0.99 ± 0.026. TCTCCGTGGG showed a switch fluorescence ratio of 1.52 ± 0.37. With ATTTAGGTCA the switch fluorescence ratio was 0.983 ± 0.011. TTGCGGGGGG was tested, and the switch fluorescence ratio was 1.03 ± 0.032. In the case of TTTTTTGCG, the switch fluorescence ratio is reported as 1.01 ± 0.063. With TGACGGAAGG the switch fluorescence ratio was 1 ± 0.032. Sequence TTGCGCGGGA has a switch fluorescence ratio of 1.02 ± 0.072. In the case of GCCATCATGC, the switch fluorescence ratio is reported as 0.97 ± 0.0073. With TCTTTGCGCG the switch fluorescence ratio was 1.02 ± 0.019. With CATAACCGGT the switch fluorescence ratio was 1.01 ± 0.027. In the case of GGGGGAAGTT, the switch fluorescence ratio is reported as 0.986 ± 0.042. In the case of CTTTTTGCAT, the switch fluorescence ratio is reported as 1.02 ± 0.013. For CGGGGAGGGG, the switch fluorescence ratio was 0.985 ± 0.028. For GTTGGAGTTA, the switch fluorescence ratio was 0.976 ± 0.023. For AGAACTGGTT, the switch fluorescence ratio was 0.961 ± 0.034. AGCCATGATG was tested, and the switch fluorescence ratio was 0.979 ± 0.036. In the case of AAAGGACGAG, the switch fluorescence ratio is reported as 0.983 ± 0.019. TTAGAGGCGT showed a switch fluorescence ratio of 1.006 ± 0.0053. GGGAATCGCT showed a switch fluorescence ratio of 0.973 ± 0.023. AGTTTATCGT was tested, and the switch fluorescence ratio was 1.03 ± 0.043. Work on AAGTAACGCG yielded a switch fluorescence ratio of 0.977 ± 0.013. TAATCGAGGG showed a switch fluorescence ratio of 0.9831 ± 0.0091. TAATAAAGTT showed a switch fluorescence ratio of 1.02 ± 0.018. Sequence AGAGTCATGT has a switch fluorescence ratio of 1.01 ± 0.029. GCAGTATTCC gave a switch fluorescence ratio of 1.66 ± 0.11. TGATTTGACC was tested, and the switch fluorescence ratio was 1.03 ± 0.051. Sequence GATTCAGGGG has a switch fluorescence ratio of 1.04 ± 0.026. With GCTAACACTT the switch fluorescence ratio was 1.02 ± 0.013. Sequence TAGTATTACC has a switch fluorescence ratio of 0.9943 ± 0.0081. For TAAAAAGTTT, the switch fluorescence ratio was 0.997 ± 0.03. In the case of CTCAGTATCG, the switch fluorescence ratio is reported as 1.012 ± 0.002. GCAATGATGT showed a switch fluorescence ratio of 1.06 ± 0.03. Work on GGCTTTACGG yielded a switch fluorescence ratio of 1.012 ± 0.0081. With GGGCATTTTT the switch fluorescence ratio was 0.9824 ± 0.0041. In the case of TACAAGGGTG, the switch fluorescence ratio is reported as 1.1 ± 0.03.
